Experimental findings from patent CN112225809A (FUZHOU CHUANGFANG PHARMACEUTICAL TECH CO LTD, dated 2021) are described below.

The target of experiment [1] is T1, Human PD1/PDCD1 Protein Biotinylated (Sinobiological, Cat.No.10377-H03H-B) (human, UniProt Q15116 25-167, biotinylated).
T1 construct: Bought reagent; also called 抗原; 人PD-1
Description: BLI (Octet Red96), biotinylated PD-1 on SA sensor, antibody in solution from 50 nM in two-fold dilutions.

The target in experiment [2] is T2, hPD1/Fc of human IgG1 (fluorescently labelled) (human, UniProt Q15116 25-167, limits assumed, labelled with Alexa Fluor 488 (Example 2); printed as hPD-1/hFc-FITC in Example 5.5).
T2 construct: also called hPD-1/hFc-FITC; 荧光标记的PD1(Dimeric); not shown: Fc of human IgG1
The experiment is described as follows: flow cytometry blocking assay: Alexa Fluor 488 labelled hPD1/Fc on SPC-A1-PDL1 cells.

T1 sequence (Q15116 25-167 limits assumed): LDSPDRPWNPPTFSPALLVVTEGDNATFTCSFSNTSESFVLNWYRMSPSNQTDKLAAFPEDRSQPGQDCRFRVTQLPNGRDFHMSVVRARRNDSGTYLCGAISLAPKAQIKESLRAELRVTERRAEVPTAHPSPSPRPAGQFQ
T2 sequence (Q15116 25-167 limits assumed): as above

B1: hUM1-30 (antibody, human IgG4 S228P, kappa, V domains shown)
VH: EVQLVESGGGLVQPGGSLRLSCAASGFTFSTYGMSWVRQAPGKGLEWVSTISGGGRYTYYPDSVKGRFTISRDNSKNTLYLQMNSLRAEDTAVYYCARQKGTTWFAHWGQGTLVTVSS
VL: DIQMTQSPSSLSASVGDRVTITCRASESVDDNGISFMNWFQQKPGKAPKLLIYAASNQGSGVPSRFSGSGSGTDFTLTISSLQPEDFATYYCQQSKEVPWTFGQGTKVEIKR
notes: Humanised from UM1-56; also called 人源化PD-1单克隆抗体(hUM1-30); UM1-56H-1 + UM1-56K-2
In experiment [1], B1 came in with a dissociation constant (Kd) of 3.34 pM, an off-rate (koff) of 5.43e-06 s⁻¹ and an on-rate (kon) of 1.63e+06 M⁻¹ s⁻¹.

B2: UM1-56 (antibody, mouse IgG1, V domains shown)
VH: EVKLVESGGGLVKPGGSLKLSCAASGFTFSTYGMSWVRQTPEKRLEWVATISGGGRYTYYPDSVKGRFTISRDNAKNNLYLQMSSLRSEDTALYYCARQKGTTWFAHWGQGTLVTVSA
VL: not shown
notes: Mouse hybridoma antibody purified on Protein G; primers were designed on mouse IgG1 and kappa; also called 鼠源PD-1单克隆抗体UM1-56
Take B2: in experiment [2], the binding result is “binds”.
